Test results: patent US20190338048A1
Like-named read-outs stand apart in the source and are kept apart here. Each block holds one substance with its values, some of them ahead of it.

Experiments:
[1] = molecular target: CR8071 lambda light chain S122D_E124Q_T131R (L1 of design 3974, system C); assay: SMCA: H1, L1, H2, L2 co-expressed, protein A, LC-MS
[2] = molecular target: CR8071 lambda light chain S122D_K129T_S176E_Y178E (L1 of design 3967, system C); assay: as above
[3] = molecular target: CR8071 lambda light chain L1 S122D_Y178K (design 3954, System C); assay: as above
[4] = molecular target: CR8071 lambda light chain L1 S122D_K129T_S176E_Y178E (designs 3951 and 3967, System C); assay: as above
[5] = molecular target: CR8071 lambda light chain L1 S122D_K129T_S176E_Y178E (designs 3951 and 3967, System C); assay: as above; remark: listed apart in the source
[6] = molecular target: CR8071 lambda light chain L1 Y178K (design 3957, System C); assay: as above
[7] = molecular target: CR8071 lambda light chain L1, design 4320 (T116F_K129T_V133D_S176F); assay: SMCA: H1,L1,H2,L2 co-expressed, protein A, LC-MS
[8] = molecular target: Design 3931 L2: SGN-CD19a kappa light chain V133G_S176D; assay: SMCA: H1, L1, H2, L2 co-expressed, protein A, LC-MS
[9] = molecular target: Design 3931 L2: SGN-CD19a kappa light chain V133G_S176D; assay: as above; remark: listed apart in the source
[10] = molecular target: Design 3947 L1: CR8071 lambda light chain K129T_Y178D; assay: as above
[11] = molecular target: Design 3951 L1: CR8071 lambda light chain S122D_K129T_S176E_Y178E; assay: as above
[12] = molecular target: Design 3954 L1: CR8071 lambda light chain S122D_Y178K; assay: as above
[13] = molecular target: Design 3957 L2: SGN-CD19a kappa light chain Q124E_V133D_T178E; assay: as above
[14] = molecular target: Design 3957 L2: SGN-CD19a kappa light chain Q124E_V133D_T178E; assay: as above; remark: listed apart in the source
[15] = molecular target: SGN-CD19a kappa light chain L2 S121K_S131K_S176K (design 3951); assay: as above
[16] = molecular target: SGN-CD19a kappa light chain L2 Q124E_V133D_T180D (design 3971, Systems B and C); assay: as above
[17] = molecular target: SGN-CD19a kappa light chain L2 Q124E_V133D_L135W (design 3972, Systems B and C); assay: as above
[18] = molecular target: SGN-CD19a kappa light chain L2 Q124E_V133D_T180D (design 3971, Systems B and C); assay: as above; remark: listed apart in the source
[19] = molecular target: SGN-CD19a kappa light chain L2 Q124E_V133D_L135W (design 3972, Systems B and C); assay: as above; remark: listed apart in the source
[20] = molecular target: SGN-CD19a kappa light chain L2 Q124E_V133D_T178E (design 3957, Systems B and C); assay: as above
[21] = molecular target: SGN-CD19a kappa light chain L2 Q124E_V133D_T178E (design 3957, Systems B and C); assay: as above; remark: listed apart in the source
[22] = molecular target: SGN-CD19a kappa light chain L2 S121K_S176E_T178E (design 3954, Systems B and C); assay: as above
[23] = molecular target: SGN-CD19a kappa light chain L2 S121K_S176E_T178E (design 3954, Systems B and C); assay: as above; remark: listed apart in the source
[24] = molecular target: SGN-CD19a kappa light chain L2, design 4320 (Q124K_L135A_T178R); assay: SMCA: H1,L1,H2,L2 co-expressed, protein A, LC-MS
[25] = molecular target: SGN-CD19a kappa light chain V133G_L135W_S176D_T180E (L2 of design 3987, systems B and C); assay: SMCA: H1, L1, H2, L2 co-expressed, protein A, LC-MS
[26] = molecular target: SGN-CD19a kappa light chain V133G_L135W_S176D_T180E (L2 of design 3987, systems B and C); assay: as above; remark: listed apart in the source
[27] = molecular target: SGN-CD19a kappa light chain S121K_Q124R_T178R (L2 of design 3967, systems B and C); assay: as above
[28] = molecular target: SGN-CD19a kappa light chain S121K_Q124R_T178R (L2 of design 3967, systems B and C); assay: as above; remark: listed apart in the source
[29] = molecular target: SGN-CD19a kappa light chain Q124E_V133D_L135W (L2 of design 3972, systems B and C); assay: as above
[30] = molecular target: SGN-CD19a kappa light chain Q124E_V133D_T180D (L2 of design 3971, systems B and C); assay: as above
[31] = molecular target: SGN-CD19a kappa light chain Q124E_V133D_L135W (L2 of design 3972, systems B and C); assay: as above; remark: listed apart in the source
[32] = molecular target: SGN-CD19a kappa light chain Q124E_V133D_T180D (L2 of design 3971, systems B and C); assay: as above; remark: listed apart in the source
[33] = molecular target: SGN-CD19a kappa light chain S121K_Q124E_V133D (L2 of design 3974, systems B and C); assay: as above
[34] = molecular target: SGN-CD19a kappa light chain S121K_Q124E_V133D (L2 of design 3974, systems B and C); assay: as above; remark: listed apart in the source
[35] = molecular target: SGN-CD19a kappa light chain Q124E_V133D_L135A (L2 of design 3980, system B); assay: as above
[36] = molecular target: SGN-CD19a kappa light chain S121K_V133I_S176D_T178E (L2 of design 3997, system B); assay: as above

- % H1L1 Pairing [1]: 59.9%
- Change in % H1L1 Pairing with respect to wild type [1]: 11.5%
Substance: CR8071 heavy chain A125R_L143D_K145T (H1 of design 3974, system C)

- % H1L1 Pairing [2]: 96.7%
- Change in % H1L1 Pairing with respect to wild type [2]: 28.6%
Substance: CR8071 heavy chain A125R_S188K (H1 of design 3967, system C)

- % H1L1 Pairing [3]: 89%
- Change in % H1L1 Pairing with respect to wild type [3]: 40.6%
Substance: CR8071 heavy chain H1 A125R_K145T_S188E (design 3954, System C)

- % H1L1 Pairing [4]: 96.7%
- Change in % H1L1 Pairing with respect to wild type [4]: 28.6%
- % H1L1 Pairing [5]: 97.5%
- Change in % H1L1 Pairing with respect to wild type [5]: 29.4%
Substance: CR8071 heavy chain H1 A125R_S188K (designs 3951 and 3967, System C)

- % H1L1 Pairing [6]: 87.2%
- Change in % H1L1 Pairing with respect to wild type [6]: 38.8%
Substance: CR8071 heavy chain H1 K145T_S188E (design 3957, System C)

- % H1L1 Pairing [7]: 96.6%
- Change in % H1L1 Pairing with respect to wild type [7]: 14.3%
Substance: CR8071 heavy chain H1, design 4320 (L143K_F174G)

- % H2L2 Pairing [8]: 83.6%
- Change in % H2L2 Pairing with respect to wild type [8]: 29.4%
- % H2L2 Pairing [9]: 99.5%
- Change in % H2L2 Pairing with respect to wild type [9]: 19.9%
Substance: Design 3931 H2: SGN-CD19a heavy chain L124R

- % H1L1 Pairing [10]: 91.3%
- Change in % H1L1 Pairing with respect to wild type [10]: 23.2%
Substance: Design 3947 H1: CR8071 heavy chain S188K

- % H1L1 Pairing [11]: 97.5%
- Change in % H1L1 Pairing with respect to wild type [11]: 29.4%
Substance: Design 3951 H1: CR8071 heavy chain A125R_S188K

- % H1L1 Pairing [12]: 89%
- Change in % H1L1 Pairing with respect to wild type [12]: 40.6%
Substance: Design 3954 H1: CR8071 heavy chain A125R_K145T_S188E

- % H2L2 Pairing [13]: 85.4%
- Change in % H2L2 Pairing with respect to wild type [13]: 31.2%
- % H2L2 Pairing [14]: 99.7%
- Change in % H2L2 Pairing with respect to wild type [14]: 20.1%
Substance: Design 3957 H2: SGN-CD19a heavy chain L143R_S188K

- % H2L2 Pairing [15]: 97.1%
- Change in % H2L2 Pairing with respect to wild type [15]: 25.8%
Substance: SGN-CD19a heavy chain H2 K145T_S186E_K228D (design 3951)

- % H2L2 Pairing [16]: 99.8%
- Change in % H2L2 Pairing with respect to wild type [16]: 20.2%
- % H2L2 Pairing [17]: 99.8%
- Change in % H2L2 Pairing with respect to wild type [17]: 20.2%
- % H2L2 Pairing [18]: 99.3%
- Change in % H2L2 Pairing with respect to wild type [18]: 45.1%
- % H2L2 Pairing [19]: 99.7%
- Change in % H2L2 Pairing with respect to wild type [19]: 45.5%
Substance: SGN-CD19a heavy chain H2 L143R (designs 3971 and 3972, Systems B and C)

- % H2L2 Pairing [20]: 85.4%
- Change in % H2L2 Pairing with respect to wild type [20]: 31.2%
- % H2L2 Pairing [21]: 99.7%
- Change in % H2L2 Pairing with respect to wild type [21]: 20.1%
Substance: SGN-CD19a heavy chain H2 L143R_S188K (design 3957, Systems B and C)

- % H2L2 Pairing [22]: 98.7%
- Change in % H2L2 Pairing with respect to wild type [22]: 19.1%
- % H2L2 Pairing [23]: 61.8%
- Change in % H2L2 Pairing with respect to wild type [23]: 7.6%
Substance: SGN-CD19a heavy chain H2 S188K_K228D (design 3954, Systems B and C)

- % H2L2 Pairing [24]: 81.4%
- Change in % H2L2 Pairing with respect to wild type [24]: 21.5%
Substance: SGN-CD19a heavy chain H2, design 4320 (L143E_K145T_Q179E_V190F)

- % H2L2 Pairing [25]: 98.1%
- Change in % H2L2 Pairing with respect to wild type [25]: 43.9%
- % H2L2 Pairing [26]: 99.3%
- Change in % H2L2 Pairing with respect to wild type [26]: 19.7%
Substance: SGN-CD19a heavy chain L124R_S186K (H2 of design 3987, systems B and C)

- % H2L2 Pairing [27]: 98.6%
- Change in % H2L2 Pairing with respect to wild type [27]: 44.4%
- % H2L2 Pairing [28]: 100%
- Change in % H2L2 Pairing with respect to wild type [28]: 28.7%
Substance: SGN-CD19a heavy chain L143E_K145T_Q179E_K228D (H2 of design 3967, systems B and C)

- % H2L2 Pairing [29]: 99.7%
- Change in % H2L2 Pairing with respect to wild type [29]: 45.5%
- % H2L2 Pairing [30]: 99.3%
- Change in % H2L2 Pairing with respect to wild type [30]: 45.1%
- % H2L2 Pairing [31]: 99.8%
- Change in % H2L2 Pairing with respect to wild type [31]: 20.2%
- % H2L2 Pairing [32]: 99.8%
- Change in % H2L2 Pairing with respect to wild type [32]: 20.2%
Substance: SGN-CD19a heavy chain L143R (H2 of designs 3971 and 3972, systems B and C)

- % H2L2 Pairing [33]: 92.6%
- Change in % H2L2 Pairing with respect to wild type [33]: 38.4%
- % H2L2 Pairing [34]: 99.8%
- Change in % H2L2 Pairing with respect to wild type [34]: 20.2%
Substance: SGN-CD19a heavy chain L143R_K228D (H2 of design 3974, systems B and C)

- % H2L2 Pairing [35]: 82.6%
- Change in % H2L2 Pairing with respect to wild type [35]: 28.4%
Substance: SGN-CD19a heavy chain L143R_V190F (H2 of design 3980, system B)

- % H2L2 Pairing [36]: 53%
- Change in % H2L2 Pairing with respect to wild type [36]: -1.2%
Substance: SGN-CD19a heavy chain S188K_K228D (H2 of design 3997, system B)
